Data set [1] deals with T1, TPR domain of SGTA (SGTA_TPR) (Homo sapiens, UniProt O43765).
T1 construct: thioredoxin A (TxA) fusion (N, cleaved yes); hexahistidine tag (N, cleaved yes); made in house; host or cells: E. coli BL21(DE3) Rosetta
As to the kind of experiment: Size exclusion chromatography (SEC) complex formation with SGTA_TPR. Type of data set: binding. The following applies: mixed in 1:1 molar ratio. The method, then: In order to understand molecular details underlying the interaction between SGTA and Rpn13, solution NMR studies were carried out on excised domains of SGTA and Rpn13 guided by earlier mapping studies. Reciprocal chemical shift perturbation (CSP) experiments were performed by titrating unlabelled Rpn13 C-terminal domain (residues 260–407; hereafter described as Rpn13_260-407) into ^15N-labelled TPR domain of SGTA (residues 84–211; hereafter referred to as SGTA_TPR) and vice versa. Assignments of backbone amide resonances were obtained from the BMRB (accession numbers 5709 and 17286, for SGTA_TPR and Rpn13_260-407, respectively). The ^1H-^15N HSQC spectra of both SGTA_TPR and Rpn13_260-407 show binding in a fast exchange regimen (Figs 1A and 2A). […] Binding was further confirmed by size-exclusion chromatography (SEC) and isothermal titration calorimetry (ITC) (Fig. 1C,D). […]
SGTA_TPR and Rpn13 plasmids were transformed into E. coli BL21(DE3) Rosetta cells, with protein expression induced by adding 0.3–0.5 mM isopropyl-β-D-thiogalactopyranoside (IPTG) to bacterial cultures in LB media at OD600 ≈ 0.8, followed by overnight incubation at 18 °C. […] Proteins were concentrated using Vivaspin concentrators (Sartorius Stedin) and sample purity and homogeneity was assessed by SDS-PAGE, mass spectrometry and NMR. […]
In general terms: SEC sorts molecules by how far they enter the pores of the column.

Data set [2] can be described thus: 1H-15N heteronuclear NOE of Rpn13_260-407, free and SGTA_TPR-bound. On the set-up: species or system human. The following applies: 350 μM 15N-labelled Rpn13_260-407, 700 MHz, four second saturation transfer or control period. The method, then:
To study the dynamic properties of free and SGTA_TPR-bound Rpn13_260-407, ^1H- ^15N heteronuclear NOE experiments were carried out with a four second saturation transfer or control period. […] The average heteronuclear NOE enhancement value for Rpn13 residues Asp 403 to Asp 407 in the free and SGTA_TPR-bound state were −0.71 and 0.48, respectively, thus indicating the transition of the Rpn13 extreme C-terminal pentapeptide region to a more ordered state upon binding to SGTA_TPR (Fig. 2C).
where Δδ1H and Δδ15N are the chemical shift differences for the same amide in its free and bound state (δfree−δbound) and for proton and nitrogen chemical shift values respectively. CSP results were mapped on to the SGTA_TPR crystal structure (PDB code 2VYI) using PyMOL. ^1H-^15N heteronuclear NOE experiments were performed with a four second saturation transfer or control period at 700 MHz. Sample concentrations of ^15N-labelled Rpn13_260-407 were maintained at 350 μM both in its free and bound state with unlabelled SGTA_TPR at a 1:1 molar ratio.

For data set [3], the system named is TPR domain of SGTA (SGTA_TPR, residues 84–211). As to the kind of experiment: Solution NMR CSP titration of unlabelled SGTA_TPR into 15N-labelled Rpn13_260-407. Format: binding, human. The following applies: 15N-labelled Rpn13_260-407, SGTA_TPR to 1:1; pH 6.0, 25 °C. The method, then:
In order to understand molecular details underlying the interaction between SGTA and Rpn13, solution NMR studies were carried out on excised domains of SGTA and Rpn13 guided by earlier mapping studies. Reciprocal chemical shift perturbation (CSP) experiments were performed by titrating unlabelled Rpn13 C-terminal domain (residues 260–407; hereafter described as Rpn13_260-407) into ^15N-labelled TPR domain of SGTA (residues 84–211; hereafter referred to as SGTA_TPR) and vice versa. Assignments of backbone amide resonances were obtained from the BMRB (accession numbers 5709 and 17286, for SGTA_TPR and Rpn13_260-407, respectively). […]
Protein samples at concentrations between 300 μM and 1 mM were prepared in 10% D2O (Sigma Aldrich), 10 mM potassium phosphate pH 6.0, 100 mM NaCl and 250 μM TCEP buffer (with 10 μM DSS for proton chemical shift referencing). […] All NMR spectra were processed with TopSpin and analysed with CcpNMR Analysis[35]. Proteins used for NMR titrations were dialysed overnight against the same buffer (10 mM potassium phosphate pH 6.0, 100 mM NaCl and 250 μM TCEP) and mixed in different molar ratios, with the concentration of the labelled protein maintained constant. ^1H-^15N HSQC experiments were recorded for each titration point at 25 °C. Chemical shift perturbation (CSP) values were calculated for each amide signal using the following formula: […]

“Also recorded” adds a separate entry of the source.

T1 sequence (O43765 84-211): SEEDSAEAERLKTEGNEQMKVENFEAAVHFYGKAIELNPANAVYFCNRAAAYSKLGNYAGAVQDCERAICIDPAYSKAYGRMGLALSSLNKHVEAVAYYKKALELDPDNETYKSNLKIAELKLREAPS

B1: Rpn13_260-407: Rpn13 C-terminal domain (residues 260–407), human, expressed in E. coli (protein)
chain: QPIQLSDLQSILATMNVPAGPAGGQQVDLASVLTPEIMAPILANADVQERLLPYLPSGESLPQTADEIQNTLTSPQFQQALGMFSAALASGQLGPLMCQFGLPAEAVEAANKGDVEAFAKAMQNNAKPEQKEGDTKDKKDEEEDMSLD
modifications: left off: thioredoxin A (TxA), N-terminal, cleaved | His6, N-terminal, cleaved
notes: Rpn13 C-terminal domain (residues 260–407), human, expressed in E. coli
Turning to B1, in data set [1], the “SEC complex formation with SGTA_TPR” value is “clearly indicative of a stable complex; also recorded: formation of a stable complex”. For the same molecule, the “average heteronuclear NOE enhancement value, residues Asp 403 to Asp 407” value in data set [2] (SGTA_TPR-bound state, 1:1 molar ratio) is 0.48; in data set [2] (free state), −0.71. The “CSP of Rpn13_260-407 backbone amides on binding SGTA_TPR” value in data set [3] is “only extreme C-terminal residues Met 404, Ser 405, Leu 406 and Asp 407 are perturbed”.

The record behind these values is article PMC5101480 (Scientific Reports, 2016).
